Measured values taken from patent US20240067748A1 (NONA BIOSCIENCES SUZHOU, published 2024).

T1: human Trop2 on cells (human, UniProt P09758 27-323)
T1 construct: whole, on cells; also called hTrop2; 293T-human Trop2 cells
T1 sequence (looked up): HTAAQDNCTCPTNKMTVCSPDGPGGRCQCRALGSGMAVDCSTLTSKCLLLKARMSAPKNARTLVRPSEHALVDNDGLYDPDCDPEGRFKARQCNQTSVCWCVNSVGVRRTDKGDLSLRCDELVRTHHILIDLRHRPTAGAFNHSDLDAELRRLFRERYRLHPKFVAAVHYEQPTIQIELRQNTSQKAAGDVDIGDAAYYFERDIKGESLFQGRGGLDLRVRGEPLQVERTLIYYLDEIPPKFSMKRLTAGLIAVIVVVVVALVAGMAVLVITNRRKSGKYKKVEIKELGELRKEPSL

T2: human TROP2 protein (Sino Biological, #10428-H08H) (human, UniProt P09758 27-274)
T2 construct: bought protein; also called human Trop2 protein antigen (His tag); not shown: His tag
T2 sequence (looked up): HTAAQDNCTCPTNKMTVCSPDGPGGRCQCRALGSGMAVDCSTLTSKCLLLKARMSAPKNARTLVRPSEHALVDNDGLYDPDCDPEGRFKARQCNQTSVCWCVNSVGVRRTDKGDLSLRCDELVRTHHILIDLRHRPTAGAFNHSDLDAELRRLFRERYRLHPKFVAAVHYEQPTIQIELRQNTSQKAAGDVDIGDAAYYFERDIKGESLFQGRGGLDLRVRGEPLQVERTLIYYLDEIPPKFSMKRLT

T3: monkey Trop2 protein (Sino Biological, #90893-C08H) (monkey, UniProt A0A2K5UE71 27-274)
T3 construct: bought protein; also called monkey Trop2 protein antigen (His tag)
T3 sequence: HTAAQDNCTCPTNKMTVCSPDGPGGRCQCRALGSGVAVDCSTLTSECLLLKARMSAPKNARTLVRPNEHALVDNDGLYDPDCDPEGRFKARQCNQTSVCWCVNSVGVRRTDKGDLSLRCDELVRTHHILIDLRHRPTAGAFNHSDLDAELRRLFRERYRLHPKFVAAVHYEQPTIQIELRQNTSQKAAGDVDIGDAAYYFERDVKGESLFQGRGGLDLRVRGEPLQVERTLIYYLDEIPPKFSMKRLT

B1: PR001168 (antibody, human IgG1, kappa, V domains shown)
VH: QVQLVESGGGVVQPGRSLRLSCATSGFIFSSYGMHWVRQAPGKGLDWVAVIWYDGSNKYYADSVKGRFTISRDNSKNTLYLQMNSLRVEDTAVYYCARETSSWYVGYLQHWGQGTLVTVSS
VL: EIVMTQSPATLSVSPGERVSLSCRASQSVNGNVAWYQQKPGQAPRLLIYAASTRATGIPARFSGSGSGTESTLTISSLQSEDCAVYYCQQYNNWPSTFGPGTKLEVTR
notes: fully human IgG1/kappa; also called antibody No. (28)
B2: PR001160 (antibody, human IgG1, kappa, V domains shown)
VH: QVQLVESGGGVVQPGRSLRLSCEASGFTFSHYGMHWVRQAPGKGLEWVAVIWYDGIMKNYIESVKGRFTISRDNSKNTLYLQMNRLRAEDTAVYYCARDGGFGELNYYGLDVWGQGTTVTVSS
VL: DIQLTQSPSFLSASVGDRVTITCRASQGISSYLGWYQQKPGKAPKLLIYVASTLQSGVPSRFSGSGSGTEFTLTISSLQPEDFATYYCQQLNSYPYTFGQGTKLEIKR
notes: fully human IgG1/kappa; also called antibody No. (22)
B3: PR001164 (antibody, human IgG1, kappa, V domains shown)
VH: QVQLQQSGPGLVKPSQTLSLTCAISGDSVSSTSAVWNWIRQSPSRGLEWLGRTCYRSKWYNDYAVSVKSRITITPDTSKNQFSLRLNPVTPEDTAVYYCARGDFRFDSWGQGTLVTVSS
VL: DIQLTQSPSFLSASVGDRVTITCRASQGISSYLAWYQQKPGKAPKLLIYAASTLQSGVPSRFSGSGSGTEFTLTISSLQPEDFATYYCQQVKIYPLTFGGGTKVEIKR
notes: fully human IgG1/kappa; also called antibody No. (25)
B4: PR001163 (antibody, human IgG1, kappa, V domains shown)
VH: QVQLVESGGDVVQPGRSLRLSCEASGFTFSHYGMHWVRQAPGKGLEWVAVVWYDGIKKYYVESVKGRFTISRDNSKNTLYLQMNRLRAEDTAVYYCARDGGFGELNYYGLDVWGQGTTVTVSS
VL: DIQLTQSPSFLSASVGDRVTITCRASQGISSYLGWYQQKPGKAPKLLIYVASTLQSGVPSRFSGSGSGTEFTLTISSLQPEDFATYYCQQLNSYPYTFGQGTKLEIKR
notes: fully human IgG1/kappa; also called antibody No. (24)
B5: PR001145 (antibody, human IgG1, kappa, V domains shown)
VH: QVQLVESGGGVVQPGRSLRLSCAASGFTFSSFGMQWVRQGPGKGLEWVAIMWFDGSNKYYVDSVKGRFTISRDNSKNTLYLQMNSLRAEDTAVYYCARLDFSGWPLIDYWGQGTLVTVSS
VL: not shown
notes: fully human IgG1/kappa; also called antibody No. (11)
B6: PR001153 (antibody, human IgG1, kappa, V domains shown)
VH: QVQLQESGPGLVKPSGTLSLTCAVSGGSISSSNWWSWVRQPPGKGLEWIGEIYHDGSTDYNPSLKSRVIISVDKSKNQFSLKVRSVTAADTAVYYCARDNWGFDYWGQGTLVTVSS
VL: EIVLTQFPGTLSLSPGERATLSCRSSQSVSSSYLAWYQQKPGQAPRLLISGASSRATGIPDRFSGSGSGTDFTLTISRLEPEDFAVYYCQQYGSSPRTFGQGTKVEIKR
notes: fully human IgG1/kappa; also called antibody No. (16)
B7: PR001134 (antibody, human IgG1, kappa, V domains shown)
VH: QVQLVESGGGVVQPGRSLRVSCIASGFFFSSYGMHWVRQAPGKGLEWVAVIWYDGSNEDYVDSVKGRFTISRDNSKNTLYLQMNSLRGEDTAMYYCARGGYNSGWWAFDIWGQGTMVTVSS
VL: DIQMTQSPSSLSASVGDRVTITCRASQGISHFLAWYQQKPGKVPKLLIYAASTLQSGVPSRFSGSGSGTDFTLTISSLQPEDVATYYCQKFNSAPLTFGGGTKVEIKR
notes: fully human IgG1/kappa; also called antibody No. (6)
B8: PR001143 (antibody, human IgG1, kappa, V domains shown)
VH: QVQLVESGGGVVQPGRSLRVSCAASGFIFSTYGMHWVRQAPGKGLEWVAVIWYDGSNEDYVDSVKGRFTISRDNSKNTLYLQMNSLRGEDTAVYYCARGGYNSGWWAFDVWGQGTLVTVSS
VL: DIQMTQSPSSLSASVGDRVTITCRASQGISHFLAWYQQKPGKVPKLLIYAASTLQSGVPSRFSGSGSGTDFTLTISSLQPEDVATYYCQKFNSAPLTFGGGTKVEIKR
notes: fully human IgG1/kappa; also called antibody No. (10)
B9: PR001147 (antibody, human IgG1, kappa, V domains shown)
VH: QVNLVESGGGVVQPGRSLKLSCAASGFTFSSYGMHWVRQAPGKGLEWVAFIWSDGTNRYYPESVKGRFTISRDDSRNTVSLQMNSLRPEDTAVYYCARDGWGTYGEYFQHWGQGTLVTVSS
VL: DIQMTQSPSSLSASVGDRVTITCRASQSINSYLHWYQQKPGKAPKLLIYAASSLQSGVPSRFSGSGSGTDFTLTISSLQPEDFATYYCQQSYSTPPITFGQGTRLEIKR
notes: fully human IgG1/kappa; also called antibody No. (12)

Tests used:
human Trop2 on cells = biological target: T1, human Trop2 on cells; test: flow cytometry on 293T-human Trop2 cells
Experimental: The cell density was determined, and the cells were resuspended to 1×10⁶ cells/mL in PBS. 100 μL of cell suspension was taken from each well and added to a 96 well V-bottom plate. The 96-well V-bottom plate was centrifuged at 1000 rpm for 5 min and washed once with PBS+0.5% BSA (VWR, #0332-100G). […] After 1 h, the cells were washed twice with PBS+0.5% BSA. The cells were incubated with 100 μL of Alexa Fluor 488 goat anti-human IgG (Life technologies, 1:1000, #A-11013) at 4° C. for 1 h in the dark, and washed twice with PBS+0.5% BSA. The cells were resuspended in 200 μL of PBS+0.5% BSA. The fluorescence intensity of the cells was analyzed using a FACS verse flow cytometer. All procedures were performed on ice.

[1] = biological target: T2, human TROP2 protein (Sino Biological, …); test: BLI, Octet RED96, AHC sensor
Experimental: (§1) Specifically, a human TROP2 protein (Sino Biological, #10428-H08H) or a monkey Trop2 protein (Sino Biological, #90893-C08H) was diluted to 200 nM with a PBS buffer (pH 7.4) containing 0.1% (w/w) BSA and 0.02% (v/v) tween 20, and incubated with the AHC sensor respectively. 40 nM Trop2 antibody was incubated at 30° C. for 3 min with the AHC sensor loaded with the human Trop2 protein or monkey Trop2 protein respectively. The reaction mixture was incubated at 30° C. for another 5 min in a PBS buffer (pH 7.4) containing 0.1% (v/w) BSA and 0.02% (v/v) Tween 20. The association and dissociation signals between the Trop2 antibody and the human Trop2 protein or monkey Trop2 protein were recorded by Octet Red 96 in real time. The affinity and the association and dissociation constants were determined by Octet using software.

[2] = biological target: T3, monkey Trop2 protein (Sino Biological, …); test: BLI, Octet RED96, AHC sensor
Experimental: as §1

[3] = biological target: T3, monkey Trop2 protein (Sino Biological, …); test: BLI, Octet RED96; ratio against KD for human Trop2 protein
Experimental: as §1

| Binder | EC50 (human Trop2 on cells) | Maximum (MFI) (human Trop2 on cells) | Top % (human Trop2 on cells) | Kd [1] | Response [1] | koff [1] | kon [1] | Kd [2] | Response [2] | koff [2] | kon [2] | KD (monkey)/KD (human) [3] | fold lower KD than the reference antibody Tab (hRS7) [1] |
| --- | --- | --- | --- | --- | --- | --- | --- | --- | --- | --- | --- | --- | --- |
| B1 | 0.669 nM | 6780 MFI | 105% | 1.59 nM | 0.333 | 0.00014 s⁻¹ | 88000 M⁻¹ s⁻¹ | 2.45 nM | 0.311 | 0.000145 s⁻¹ | 59300 M⁻¹ s⁻¹ | 1.54 |  |
| B2 | 1.22 nM | 6710 MFI | 104% | 0.819 nM | 0.39 | 9.48e-05 s⁻¹ | 116000 M⁻¹ s⁻¹ | 1.82 nM | 0.36 | 0.000135 s⁻¹ | 74300 M⁻¹ s⁻¹ | 2.22 |  |
| B3 | 2.4 nM | 8950 MFI | 138% | 2.41 nM | 0.194 | 0.000262 s⁻¹ | 109000 M⁻¹ s⁻¹ | 2.04 nM | 0.173 | 0.000162 s⁻¹ | 79400 M⁻¹ s⁻¹ | 0.85 |  |
| B4 | 0.496 nM | 5990 MFI | 92.4% | 0.79 nM | 0.396 | 8.34e-05 s⁻¹ | 106000 M⁻¹ s⁻¹ | 1.96 nM | 0.372 | 0.000134 s⁻¹ | 68400 M⁻¹ s⁻¹ | 2.48 |  |
| B5 | 0.48 nM | 7030 MFI | 108% | 14.7 nM | 0.29 | 0.00135 s⁻¹ | 91900 M⁻¹ s⁻¹ | 19.1 nM | 0.277 | 0.00134 s⁻¹ | 70100 M⁻¹ s⁻¹ | 1.3 |  |
| B6 | 2.47 nM | 6940 MFI | 107% | 0.0323 nM | 0.381 | 2.53e-06 s⁻¹ | 78600 M⁻¹ s⁻¹ | 0.181 nM | 0.337 | 1.07e-05 s⁻¹ | 59300 M⁻¹ s⁻¹ | 5.61 | ~10 fold |
| B7 | 0.653 nM | 6040 MFI | 93.2% | 5.42 nM | 0.354 | 0.000451 s⁻¹ | 83100 M⁻¹ s⁻¹ | 9.33 nM | 0.335 | 0.000512 s⁻¹ | 54900 M⁻¹ s⁻¹ | 1.72 |  |
| B8 | 0.795 nM | 6300 MFI | 97.2% | 6.94 nM | 0.335 | 0.000556 s⁻¹ | 80100 M⁻¹ s⁻¹ | 12.4 nM | 0.308 | 0.000645 s⁻¹ | 52100 M⁻¹ s⁻¹ | 1.78 |  |
| B9 | 1.31 nM | 7420 MFI | 115% | 0.498 nM | 0.349 | 4.23e-05 s⁻¹ | 85000 M⁻¹ s⁻¹ | 1.92 nM | 0.341 | 0.000117 s⁻¹ | 60900 M⁻¹ s⁻¹ | 3.86 |  |
